Reference: IntAct's records for PubMed 7561682

B1: Focal adhesion kinase 1 (Homo sapiens), Q05397 (parent)
chain: MAAAYLDPNLNHTPNSSTKTHLGTGMERSPGAMERVLKVFHYFESNSEPTTWASIIRHGDATDVRGIIQKIVDSHKVKHVACYGFRLSHLRSEEVHWLHVDMGVSSVREKYELAHPPEEWKYELRIRYLPKGFLNQFTEDKPTLNFFYQQVKSDYMLEIADQVDQEIALKLGCLEIRRSYWEMRGNALEKKSNYEVLEKDVGLKRFFPKSLLDSVKAKTLRKLIQQTFRQFANLNREESILKFFEILSPVYRFDKECFKCALGSSWIISVELAIGPEEGISYLTDKGCNPTHLADFTQVQTIQYSNSEDKDRKGMLQLKIAGAPEPLTVTAPSLTIAENMADLIDGYCRLVNGTSQSFIIRPQKEGERALPSIPKLANSEKQGMRTHAVSVSETDDYAEIIDEEDTYTMPSTRDYEIQRERIELGRCIGEGQFGDVHQGIYMSPENPALAVAIKTCKNCTSDSVREKFLQEALTMRQFDHPHIVKLIGVITENPVWIIMELCTLGELRSFLQVRKYSLDLASLILYAYQLSTALAYLESKRFVHRDIAARNVLVSSNDCVKLGDFGLSRYMEDSTYYKASKGKLPIKWMAPESINFRRFTSASDVWMFGVCMWEILMHGVKPFQGVKNNDVIGRIENGERLPMPPNCPPTLYSLMTKCWAYDPSRRPRFTELKAQLSTILEEEKAQQEERMRMESRRQATVSWDSGGSDEAPPKPSRPGYPSPRSSEGFYPSPQHMVQTNHYQVSGYPGSHGITAMAGSIYPGQASLLDQTDSWNHRPQEIAMWQPNVEDSTVLDLRGIGQVLPTHLMEERLIRQQQEMEEDQRWLEKEERFLKPDVRLSRGSIDREDGSLQGPIGNQHIYQPVGKPDPAAPPKKPPRPGAPGHLGSLASLSSPADSYNEGVKLQPQEISPPPTANLDRSNDKVYENVTGLVKAVIEMSSKIQPAPPEEYVPMVKEVGLALRTLLATVDETIPLLPASTHREIEMAQKLLNSDLGELINKMKLAQQYVMTSLQQEYKKQMLTAAHALAVDAKNLLDVIDQARLKMLGQTRPH

Variants of: B1
Conditions: with paxi_human PXN

Row | Variant | effect of a mutation on the interaction
1 | L1034S | decreasing interaction
2 | D1039A | decreasing interaction
3 | V928G | decreasing interaction
4 | L1035A | decreasing interaction
5 | L931R | decreasing interaction
6 | V935A | decreasing interaction
7 | V1037D | decreasing interaction
8 | R1042G | decreasing interaction
